US20230348572A1 (ROSALIND FRANKLIN INSTITUTE, published 2023)
Like-named read-outs stand apart in the source and are kept apart here.

Tests used:
[1] = target: T1, SARS-CoV-2 spike glycoprotein ectodomain (prefusion-stabilized, trimeric) (SARS-CoV-2, UniProt P0DTC2 14-1208); test: ITC, nanobody titrated into trimeric Spike, 1:1 nanobody:monomer
T1 construct: range 1-1208; also called spike protein; Spike ectodomain

[2] = target: T1, SARS-CoV-2 spike glycoprotein …
[3] = target: T1, SARS-CoV-2 spike glycoprotein …; test: ITC, Spike in the cell, H11-H4 in the syringe
[4] = target: T1, SARS-CoV-2 spike glycoprotein …; remark: listed apart in the source

| Binder | Kd [1] | ΔH [2] | ΔS [2] | ΔH [3] | ΔS [3] | ΔH [4] | ΔS [4] |
| --- | --- | --- | --- | --- | --- | --- | --- |
| NbRBD_H11-H4 (VHH, also called nanobody H11-H4) VHH: QVQLVESGGGLMQAGGSLRLSCAVSGRTFSTAAMGWFRQAPGKEREFVAAIRWSGGSAYYADSVKGRFTISRDKAKNTVYLQMNSLKYEDTAVYYCAQTHYVSYLLSDYATWPYDYWGQGTQVTVSS | 44 nM | -74 kJmol-1 | -107 Jmol-1K-1 | -73 kJmol-1 | -103 Jmol-1K-1 |  |  |
| NbRBD_H11-D4 (VHH, also called nanobody H11-D4) VHH: QVQLVESGGGLMQAGGSLRLSCAVSGRTFSTAAMGWFRQAPGKEREFVAAIRWSGGSAYYADSVKGRFTISRDKAKNTVYLQMNSLKYEDTAVYYCARTENVRSLLSDYATWPYDYWGQGTQVTVSS | 79 nM |  |  |  |  | -81.2 kJmol-1 | -136 Jmol-1K-1 |
